{
  "source": "paper PMC5662737",
  "about": "“Structural and mechanistic insights into ATRX-dependent and -independent functions of the histone chaperone DAXX” (Nature Communications, 2017)",
  "parents": {"B1": {"name": "human ATRX DAXX-binding motif (DBM) peptide, wild type [human] / human DAXX four-helix bundle domain (4HB, residues 50–144) [human] (parent complex)", "chain 1": "NDPENRIAKKMLLEEIKANLSSDE", "chain 2": "SSSSGGKKCYKLENEKLFEEFLELCKMQTADHPEVVPFLYNRQQRAHSLFLASAEFCNILSRVLSRARSRPAKLYVYINELCTVLKAHSAKKKLN"}, "B2": {"name": "human DAXX four-helix bundle domain (4HB, residues 50–144) [human] / human ATRX DAXX-binding motif (DBM) peptide, wild type [human] (parent complex)", "chain 1": "B1 chain 2", "chain 2": "NDPENRIAKKMLLEEIKANLSSDE"}},
  "data": [
    {"variants_of": "B1", "assay": "ITC", "units": {"Kd": "µM"}, "values": [
      {"variant": "chain 1 I16A", "Kd": 12.9}
    ]},
    {"variants_of": "B2", "assay": "ITC", "units": {"Kd": "µM"}, "values": [
      {"variant": "chain 1 F38A", "Kd": 7.5}
    ]}
  ]
}
